Drawing on publication PMC5448812, “Distinct DNA-binding surfaces in the ATPase and linker domains of MutLγ determine its substrate specificities and exert separable functions in meiotic recombination and mismatch repair”, this text covers binding result and Kd for five molecules.

As a reminder, the Kd is the equilibrium constant for the complex coming apart.

Data set [1] addresses T1, HisFlag-Mlh1;Mlh3 (Saccharomyces cerevisiae (S288c strain …, UniProt P38920;Q12083 1-769;1-715, |)).
T1 sequence 1: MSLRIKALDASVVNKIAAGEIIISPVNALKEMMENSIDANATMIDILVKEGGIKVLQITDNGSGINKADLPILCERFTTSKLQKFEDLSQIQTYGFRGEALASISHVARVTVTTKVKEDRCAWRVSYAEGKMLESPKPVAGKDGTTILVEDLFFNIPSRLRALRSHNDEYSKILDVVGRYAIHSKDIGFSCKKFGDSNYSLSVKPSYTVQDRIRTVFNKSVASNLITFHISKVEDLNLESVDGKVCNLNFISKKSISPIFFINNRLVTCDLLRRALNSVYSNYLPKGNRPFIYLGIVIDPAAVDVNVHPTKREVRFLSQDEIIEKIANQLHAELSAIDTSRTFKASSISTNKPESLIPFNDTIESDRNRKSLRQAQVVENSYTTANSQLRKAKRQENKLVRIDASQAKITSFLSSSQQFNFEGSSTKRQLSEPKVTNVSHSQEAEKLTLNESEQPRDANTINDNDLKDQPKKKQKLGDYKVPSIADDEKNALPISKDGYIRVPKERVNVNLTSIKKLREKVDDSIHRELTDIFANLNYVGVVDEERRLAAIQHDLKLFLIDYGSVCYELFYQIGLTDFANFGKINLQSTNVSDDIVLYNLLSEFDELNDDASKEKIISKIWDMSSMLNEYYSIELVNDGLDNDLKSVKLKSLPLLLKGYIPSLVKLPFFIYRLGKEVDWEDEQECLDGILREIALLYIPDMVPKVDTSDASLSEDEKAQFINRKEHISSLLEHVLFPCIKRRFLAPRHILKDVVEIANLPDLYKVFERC
T1 sequence 2: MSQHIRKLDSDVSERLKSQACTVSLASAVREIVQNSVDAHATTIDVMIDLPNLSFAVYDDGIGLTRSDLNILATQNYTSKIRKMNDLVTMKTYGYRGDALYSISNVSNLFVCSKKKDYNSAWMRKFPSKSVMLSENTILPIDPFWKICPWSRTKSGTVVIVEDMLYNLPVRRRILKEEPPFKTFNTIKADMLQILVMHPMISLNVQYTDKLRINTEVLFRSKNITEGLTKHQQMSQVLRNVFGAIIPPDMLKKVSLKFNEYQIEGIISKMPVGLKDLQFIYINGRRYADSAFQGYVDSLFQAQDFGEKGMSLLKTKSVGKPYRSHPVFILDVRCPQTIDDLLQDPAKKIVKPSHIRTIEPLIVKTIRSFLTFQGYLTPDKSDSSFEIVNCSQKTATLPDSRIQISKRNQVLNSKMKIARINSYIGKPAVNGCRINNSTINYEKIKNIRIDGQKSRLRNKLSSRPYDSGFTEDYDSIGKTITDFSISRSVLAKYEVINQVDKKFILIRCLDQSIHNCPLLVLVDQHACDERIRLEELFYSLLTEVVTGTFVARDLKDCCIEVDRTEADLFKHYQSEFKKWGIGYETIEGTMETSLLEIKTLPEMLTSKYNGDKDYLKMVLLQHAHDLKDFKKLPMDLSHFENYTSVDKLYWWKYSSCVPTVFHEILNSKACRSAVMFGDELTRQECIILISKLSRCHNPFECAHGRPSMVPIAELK
Put plainly: competition; labeled poly-dT 80 nt; 500x excess in nt; EMSA: 25 mM Tris-HCl pH 7.5, 15% glycerol, 100 mM NaCl, 2 mM DTT, 5 mM EDTA, 1 mg/ml BSA, 30 min 30 C, 1 nM DNA; pull-down: similar, 10% glycerol, 0.2 mg/ml BSA, 0.1% Triton X-100, 4 C. The note with it: protein: recombinant;recombinant; tags: N-terminal 6xHis-2xFlag;none; copies: 1;1. In general terms: In EMSA bound probe runs differently from free probe, usually more slowly.

Data set [2] deals with T1, HisFlag-Mlh1;Mlh3. Put plainly: EMSA; Hill slope 2.9 +/- 0.27; 5 mM EDTA; EMSA: 25 mM Tris-HCl pH 7.5, 15% glycerol, 100 mM NaCl, 2 mM DTT, 5 mM EDTA, 1 mg/ml BSA, 30 min 30 C, 1 nM DNA; pull-down: similar, 10% glycerol, 0.2 mg/ml BSA, 0.1% Triton X-100, 4 C. The note with it: protein: recombinant;recombinant; tags: N-terminal 6xHis-2xFlag;none; copies: 1;1; label: 5'-32P when used as probe.

Data set [3] has as its target T1, HisFlag-Mlh1;Mlh3. Put plainly: FeBABE footprinting; cleavage in Mlh1 N-terminal domain and linker; EMSA: 25 mM Tris-HCl pH 7.5, 15% glycerol, 100 mM NaCl, 2 mM DTT, 5 mM EDTA, 1 mg/ml BSA, 30 min 30 C, 1 nM DNA; pull-down: similar, 10% glycerol, 0.2 mg/ml BSA, 0.1% Triton X-100, 4 C. The note with it: protein: recombinant;recombinant; tags: N-terminal 6xHis-2xFlag;none; copies: 1;1; label: 3'-biotin.

Data set [4] concerns the target T2, Mlh1 untagged;HisFlag-Mlh3 (Saccharomyces cerevisiae (S288c strain …, UniProt P38920;Q12083 1-769;1-715, |)).
T2 sequence 1: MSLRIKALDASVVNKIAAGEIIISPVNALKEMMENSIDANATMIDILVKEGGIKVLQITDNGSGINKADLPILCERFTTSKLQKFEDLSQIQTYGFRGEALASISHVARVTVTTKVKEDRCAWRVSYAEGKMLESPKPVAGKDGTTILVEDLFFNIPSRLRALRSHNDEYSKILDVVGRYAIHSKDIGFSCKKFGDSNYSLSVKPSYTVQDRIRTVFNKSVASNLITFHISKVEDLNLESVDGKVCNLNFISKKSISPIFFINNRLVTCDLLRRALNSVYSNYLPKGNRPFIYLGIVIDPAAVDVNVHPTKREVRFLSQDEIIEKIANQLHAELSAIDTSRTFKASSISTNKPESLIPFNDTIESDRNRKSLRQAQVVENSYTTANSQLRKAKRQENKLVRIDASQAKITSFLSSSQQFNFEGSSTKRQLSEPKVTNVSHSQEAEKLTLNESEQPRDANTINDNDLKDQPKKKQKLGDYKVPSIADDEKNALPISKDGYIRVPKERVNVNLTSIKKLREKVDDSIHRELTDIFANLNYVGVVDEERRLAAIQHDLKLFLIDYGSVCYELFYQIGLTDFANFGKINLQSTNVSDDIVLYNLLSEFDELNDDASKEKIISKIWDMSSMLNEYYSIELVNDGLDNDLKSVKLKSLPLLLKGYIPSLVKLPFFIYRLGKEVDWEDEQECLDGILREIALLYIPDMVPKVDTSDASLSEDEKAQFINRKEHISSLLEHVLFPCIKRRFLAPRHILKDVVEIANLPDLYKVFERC
T2 sequence 2: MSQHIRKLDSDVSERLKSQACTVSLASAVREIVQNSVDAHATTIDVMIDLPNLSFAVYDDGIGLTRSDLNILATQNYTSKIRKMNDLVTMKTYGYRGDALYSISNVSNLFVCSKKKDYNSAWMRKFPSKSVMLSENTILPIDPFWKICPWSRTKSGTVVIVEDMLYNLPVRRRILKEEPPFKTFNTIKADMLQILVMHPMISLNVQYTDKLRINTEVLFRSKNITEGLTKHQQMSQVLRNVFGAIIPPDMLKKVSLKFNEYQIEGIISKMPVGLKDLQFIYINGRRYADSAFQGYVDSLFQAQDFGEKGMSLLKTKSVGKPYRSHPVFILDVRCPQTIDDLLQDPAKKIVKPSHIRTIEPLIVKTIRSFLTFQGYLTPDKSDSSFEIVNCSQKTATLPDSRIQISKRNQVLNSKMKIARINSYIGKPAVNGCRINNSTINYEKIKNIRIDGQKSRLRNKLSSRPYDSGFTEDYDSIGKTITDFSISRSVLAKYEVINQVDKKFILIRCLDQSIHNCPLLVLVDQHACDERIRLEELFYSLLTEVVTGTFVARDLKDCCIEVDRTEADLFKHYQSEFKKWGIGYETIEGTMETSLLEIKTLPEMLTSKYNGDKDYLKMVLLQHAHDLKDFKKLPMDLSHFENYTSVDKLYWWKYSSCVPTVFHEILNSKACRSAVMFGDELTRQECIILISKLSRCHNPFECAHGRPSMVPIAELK
Put plainly: FeBABE footprinting; cleavage in Mlh3 N-terminal domain and linker; EMSA: 25 mM Tris-HCl pH 7.5, 15% glycerol, 100 mM NaCl, 2 mM DTT, 5 mM EDTA, 1 mg/ml BSA, 30 min 30 C, 1 nM DNA; pull-down: similar, 10% glycerol, 0.2 mg/ml BSA, 0.1% Triton X-100, 4 C. As to conditions: protein: recombinant;recombinant; tags: none;N-terminal 6xHis-2xFlag; copies: 1;1; label: 3'-biotin.

Data set [5] concerns the target T1, HisFlag-Mlh1;Mlh3. Put plainly: EMSA; Hill slope 2.0 +/- 0.05; 5 mM EDTA; EMSA: 25 mM Tris-HCl pH 7.5, 15% glycerol, 100 mM NaCl, 2 mM DTT, 5 mM EDTA, 1 mg/ml BSA, 30 min 30 C, 1 nM DNA; pull-down: similar, 10% glycerol, 0.2 mg/ml BSA, 0.1% Triton X-100, 4 C. As to conditions: protein: recombinant;recombinant; tags: N-terminal 6xHis-2xFlag;none; copies: 1;1; label: 5'-32P when used as probe; four-way junction, 40 bp arms.

The target of data set [6] is T2, Mlh1 untagged;HisFlag-Mlh3. The experiment in a line: FeBABE footprinting; Mlh3 linker enriched; EMSA: 25 mM Tris-HCl pH 7.5, 15% glycerol, 100 mM NaCl, 2 mM DTT, 5 mM EDTA, 1 mg/ml BSA, 30 min 30 C, 1 nM DNA; pull-down: similar, 10% glycerol, 0.2 mg/ml BSA, 0.1% Triton X-100, 4 C. As to conditions: protein: recombinant;recombinant; tags: none;N-terminal 6xHis-2xFlag; copies: 1;1; label: 3'-biotin on strand 1; four-way junction, 40 bp arms.

The target of data set [7] is T1, HisFlag-Mlh1;Mlh3. Put plainly: FeBABE footprinting; mostly Mlh1 linker; EMSA: 25 mM Tris-HCl pH 7.5, 15% glycerol, 100 mM NaCl, 2 mM DTT, 5 mM EDTA, 1 mg/ml BSA, 30 min 30 C, 1 nM DNA; pull-down: similar, 10% glycerol, 0.2 mg/ml BSA, 0.1% Triton X-100, 4 C. The note with it: protein: recombinant;recombinant; tags: N-terminal 6xHis-2xFlag;none; copies: 1;1; label: 3'-biotin on strand 1; four-way junction, 40 bp arms.

As for TTTTTTTTTT (ssDNA) [ssDNA 10 nt competitor (poly-dT?)], the binding result in the data set with HisFlag-Mlh1;Mlh3 [1] is recorded as “no binding”.

B1: ssDNA80 (cb099, poly-dT) (ssDNA)
DNA: TTTTTTTTTTTTTTTTTTTTTTTTTTTTTTTTTTTTTTTTTTTTTTTTTTTTTTTTTTTTTTTTTTTTTTTTTTTTTTTT
B1: the Kd with HisFlag-Mlh1;Mlh3 [2] was 0.0459 µM.

B2: ssDNA+ (cb361) (ssDNA)
DNA: TTTTTTTTTTTTTTTTTTTTTTTTTTTTTTTTTTTTTTTTTTTTTTTTTTTTTTTTTTTTTTTTTTTTTTTTTTTTTTTT
modifications: phosphorothioates every 8 nt, FeBABE-conjugated
With B2, the binding result (with HisFlag-Mlh1;Mlh3 [3]; in data set [4]) was “binds” each time.

B3: HJ80 (cb095-098) (structured_DNA)
DNA 1: CTAGTATAGAGCCGGCGCGCCATGTCTAGATAGCGTTAGGTCTGCCGAATAGTACTACTCGGATCCCGAGCGAACCACGC
DNA 2: GCGTGGTTCGCTCGGGATCCGAGTAGTACTATTCGGCAGAGGATTCGAATAGGCCTAATCGAATTCCGCCATCGATGCAC
DNA 3: GTGCATCGATGGCGGAATTCGATTAGGCCTATTCGAATCCAGACGCGAGTAGATCTTCACGGTACCCGCGGTTACCCGTG
DNA 4: CACGGGTAACCGCGGGTACCGTGAAGATCTACTCGCGTCTCCTAACGCTATCTAGACATGGCGCGCCGGCTCTATACTAG
On to B3, for which the Kd with HisFlag-Mlh1;Mlh3 [5] stood at 0.0729 µM.

B4: HJ+1 (cb256, 351, 369, 98) (structured_DNA)
DNA 1: CTAGTATAGAGCCGGCGCGCCATGTCTAGATAGCGTTAGGTCTGCCGAATAGTACTACTCGGATCCCGAGCGAACCACGC
DNA 2: GCGTGGTTCGCTCGGGATCCGAGTAGTACTATTCGGCAGAGGATTCGAATAGGCCTAATCGAATTCCGCCATCGATGCAC
DNA 3: GTGCATCGATGGCGGAATTCGATTAGGCCTATTCGAATCCAGACGCGAGTAGATCTTCACGGTACCCGCGGTTACCCGTG
DNA 4: CACGGGTAACCGCGGGTACCGTGAAGATCTACTCGCGTCTCCTAACGCTATCTAGACATGGCGCGCCGGCTCTATACTAG
modifications: phosphorothioates in strands 2 and 3 (segment 1), FeBABE-conjugated
On to B4, for which the binding result (in data set [6]; in the data set with HisFlag-Mlh1;Mlh3 [7]) was “binds” each time.
